Measurements: publication PMC9800282 (2022)

Biological target: T1, VTN (vitronectin) (Homo sapiens (Human), UniProt P04004)
T1 chain: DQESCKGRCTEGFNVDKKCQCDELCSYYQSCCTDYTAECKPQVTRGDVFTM
Experiment: SPR; Mg2+/Ca2+/Mn2+ buffer, 37 °C 1 mM MgCl2, 1 mM CaCl2, 2 mM MnCl2 in SPR buffer

Kd: 997 nM
B1: integrin αvβ3 (rhαvβ3) (protein)
chain 1: FNLDVDSPAEYSGPEGSYFGFAVDFFVPSASSRMFLLVGAPKANTTQPGIVEGGQVLKCDWSSTRRCQPIEFDATGNRDYAKDDPLEFKSHQWFGASVRSKQDKILACAPLYHWRTEMKQEREPVGTCFLQDGTKTVEYAPCRSQDIDADGQGFCQGGFSIDFTKADRVLLGGPGSFYWQGQLISDQVAEIVSKYDPNVYSIKYNNQLATRTAQAIFDDSYLGYSVAVGDFNGDGIDDFVSGVPRAARTLGMVYIYDGKNMSSLYNFTGEQMAAYFGFSVAATDINGDDYADVFIGAPLFMDRGSDGKLQEVGQVSVSLQRASGDFQTTKLNGFEVFARFGSAIAPLGDLDQDGFNDIAIAAPYGGEDKKGIVYIFNGRSTGLNAVPSQILEGQWAARSMPPSFGYSMKGATDIDKNGYPDLIVGAFGVDRAILYRARPVITVNAGLEVYPS
chain 2: GPNICTTRGVSSCQQCLAVSPMCAWCSDEALPLGSPRCDLKENLLKDNCAPESIEFPVSEARVLEDRPLSDKGSGDSSQVTQVSPQRIALRLRPDDSKNFSIQVRQVEDYPVDIYYLMDLSYSMKDDLWSIQNLGTKLATQMRKLTSNLRIGFGAFVDKPVSPYMYISPPEALENPCYDMKTTCLPMFGYKHVLTLTDQVTRFNEEVKKQSVSRNRDAPEGGFDAIMQATVCDEKIGWRNDASHLLVFTTDAKTHIALDGRLAGIVQPNDGQCHVGSDNHYSASTTMDYPSLGLMTEKLSQKNINLIFAVTENVVNLYQNYSELIPGTTVGVLSMDSSNVLQLIVDAYGKIRSKVELEVRDLPEELSLSFNATCLNNEVIPGLKSCMGLKIGDTVSFSIEAKVRGCPQEKEKSFTIKPVGFKDSLIVQVTFDCDCA
